Columns and labels:
[1] = biological target: B7-H1 (full-length, expressed on BHK cells transfected with pZMP21 hB7-H1) (human) (UniProt Q9NZQ7); assay: flow cytometry (PE probe vs anti-CD8 APC) on BHK cells transfected with full-length B7-H1; no competitor
[2] = biological target: B7-H1 (full-length, expressed on BHK cells transfected with pZMP21 hB7-H1) (human) (UniProt Q9NZQ7); assay: flow cytometry on B7-H1-transfected BHK cells; competitor: excess unlabeled BTLA/mFc2 (row printed a second time)
[3] = biological target: B7-H1 (full-length, expressed on BHK cells transfected with pZMP21 hB7-H1) (human) (UniProt Q9NZQ7); assay: flow cytometry on B7-H1-transfected BHK cells; competitor: excess unlabeled NKp30/mFc2
[4] = biological target: B7-H1 (full-length, expressed on BHK cells transfected with pZMP21 hB7-H1) (human) (UniProt Q9NZQ7); assay: flow cytometry on B7-H1-transfected BHK cells; competitor: excess unlabeled BTLA/mFc2

Sequence of UniProt Q9NZQ7 (Q9NZQ7 19-290): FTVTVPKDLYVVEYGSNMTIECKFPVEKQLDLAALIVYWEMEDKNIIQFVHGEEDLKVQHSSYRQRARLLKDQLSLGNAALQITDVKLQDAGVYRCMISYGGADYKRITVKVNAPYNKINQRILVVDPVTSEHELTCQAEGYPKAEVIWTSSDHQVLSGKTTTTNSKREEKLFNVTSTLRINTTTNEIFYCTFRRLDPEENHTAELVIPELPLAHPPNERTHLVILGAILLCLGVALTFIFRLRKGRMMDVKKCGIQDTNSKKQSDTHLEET

Substance | % double positive [1] [%] | % double positive [2] [%] | % double positive [3] [%] | % double positive [4] [%]
BTLA/mFc2 (Fc fusion) | 1.96 |  |  | 
PD-1/Fc (Fc fusion) | 33.7 | 28.8 | 31.4 | 28.8
Zenon control | 1.91 |  |  | 
